The values that follow are results of earlier work, collected in PMC7226360.

The Kd is the constant that tells how readily two partners part at equilibrium.

In this data set the target is NEDD8 (Homo sapiens) (UniProt Q15843).
Sequence of NEDD8 (Homo sapiens) (Q15843 1-76): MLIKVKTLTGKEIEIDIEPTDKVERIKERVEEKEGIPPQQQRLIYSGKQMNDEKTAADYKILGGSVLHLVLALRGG

Sequence of KHNYN 627-678 (O15037 627-678): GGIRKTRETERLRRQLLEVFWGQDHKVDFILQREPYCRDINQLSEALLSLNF

For the substance KHNYN 627-678 (from UniProt O15037), the Kd is 24 µM.
